Experiment: yeast display, Sf9 membrane polyspecificity reagent, FACS + sequencing; frameworks hold sequencing errors
Summary of the method: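 Synthetic nanobody libraries on Saccharomyces cerevisiae BJ5465 were galactose-induced for 36–48 hours, stained 1 hour at 4 °C with 10% biotinylated, detergent-solubilized Sf9 membrane reagent and enriched on streptavidin microbeads. FACS then separated cells into low and high (top ~1%) gates by anti-HA (expression) and streptavidin (reagent binding) fluorescence. Genes were colony-PCR amplified, MiSeq 2 × 250 sequenced and CDR-length filtered. A clone's polyreactivity label is that of its gate of origin.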

Sequence | polyreactivity (PSR sort gate)
QVQLVESGGGLVQAGGSLRLSCAASGSTFFYNAMGWSRQAPGKERELVASINDRAGRTYYADSVKGRFSISRDNAKNTVYLQMNSLKPEDTAVYYCAAEPWYKFDDDFWGQGTQVTVSS | low polyreactivity
QVQLVESGGGLVQAGGSLRLSCAASGSTFFYNAMGWYRKAPGKERELVAAITGSGTRTYYADSVKGRFTISRDNAKNTVYLQMNSLKPEDTAVYYCAKYPHPLKYRGYPSEFDYWGQGTQVTVSS | low polyreactivity
QVQLVESGGGLVQAGGSLRLSCAASGSTFFYNAMGWYRQAPGKERELVAAISWSGGRTYYADSVKGRFTISRDNAKNTVYLQMNSLKPEDTAVYYCNTVVSKYYKVGFGSWGHGTQVTVSS | high polyreactivity
QVQLVESGGGLVQAGGSLRLSCAASGSTFFYNAMGWYRQAPGKERELVAGITSGGSTYYADSVKGRFTISRDNAKNTVYLQMNSLKPEDTAVYYCAVDVPPWDYDYWGQGTQVTVSS | low polyreactivity
QVQLVESGGGLVQAGGSLRLSCAASGSTFFYYAMGWYRQAPGKERELVAGITSGASTTYADSVKGRFTISRDNAKNNVYLQMNSLKPEDTAVYYCAADHVESSWSDYDYWGQGTQVTVSS | low polyreactivity
QVQLVESGGGLVQAGGSLRLSCAASGSTFGANAKGWYRQAPGKARALVAAITWSGGSTYYADSVKGRFTISRDNAKNTVFLQMNSLKPEDTAVSYCNAVARWYVLQVYEYDYWGQGTQVTVSS | low polyreactivity
QVQLVESGGGLVQAGGSLRLSCAASGSTFGANAMGWYRQAPGKEREFVAAISRSGVRTYYADSVKGRFTISRDNAKNTVYLQMNSLKPEDTAVYYCAARFWYDYRHYDYWGQGTQVTVSS | low polyreactivity
QVQLVESGGGLVQAGGSLRLSCAASGSTFGANAMGWYRQARGKEREFVAAISRSGVRTYYADSVKGRFTISRDNAKNTVYLQMNSLKPEDTAVYYCAADGYWWTYTRYDYCGQGTQVTVSS | low polyreactivity
QVQLVESGGGLVQAGGSLRLSCAASGSTFGDNAMGWYRQAPGKERELVATITWSDDSTYYADSVKGRFTISRDNAKNTVYLQMNSLKPEDTAFYYCAADVDSYLLIGAVEYDYWGHGTQVTVSS | low polyreactivity
QVQLVESGGGLVQAGGSLRLSCAASGSTFGDNTMGWYRQAPGKERELVAAISRRGGSTYYADSVKGRFTISRDNAKNTVYLQMNSLKPEDTAVYYCADEWQQLGGPVYYWGQGTQVTVSS | high polyreactivity
QVQLVESGGGLVQAGGSLRLSCAASGSTFGDYAMGWYRQAPGKERELVAAITIGGITTYADSVKGRFTISRDNAKNTVYLQMNSLKPEDTAVYYCNADDYQYKTWYHLDYWGQGTQVTVSS | low polyreactivity
QVQLVESGGGLVQAGGSLRLSCAASGSTFGFYAMGWYRQAPGKERELVAAISGRGGSTYYADSVKGRFTISRDNAKNTVYLQMNSLKPEDTAVYYCNADWQDDLAGYDVDYWGQGTQVTVSS | low polyreactivity
QVQLVESGGGLVQAGGSLRLSCAASGSTFGFYAMGWYRQAPGKERELVAAITGSGGSTYYADSVKGRFTISRDNAKNTVYLQMNSLKPEDTAVYYCNRYGVRYYRYDYWGQGTQVTVSS | high polyreactivity
QVQLVESGGGLVQAGGSLRLSCAASGSTFGFYAMGWYRQAPGTERELVAVISSGDSPYYADSVKGRFTISRDNAKNTVYLKMNSRKPEDTAVYYCAKDALVIDGGGGYDYWGQGTQVTVSS | low polyreactivity
QVQLVESGGGLVQAGGSLRLSCAASGSTFGFYAMGWYTHAPGKERELVAGITRVGSTNYADSVKGRFTISRDNAKNTVYLQMNSLKPEVTAVYYCNRRYTPYTWPYGYWGQGTQVTVSS | high polyreactivity
QVQLVESGGGLVQAGGSLRLSCAASGSTFGGYALGWDRQAPGKDRELVAAISRSGGRTYYADSVKGRFTISRDNAQNTVYLQMNSLKPEATAVYDCYPYYIASTFDYWGHGTQVTVSS | high polyreactivity
QVQLVESGGGLVQAGGSLRLSCAASGSTFGGYAMGRYRQAPGKERELVAAISNGDRTNYADSVKGRFTISRDNAKNTVYLQKNSLKPEETAVYYCATRTLFRYPNYGNNLWGYDYWGQGTQVTVSS | low polyreactivity
QVQLVESGGGLVQAGGSLRLSCAASGSTFGGYAMGWSRQAPGKERELVARITRSGGRTYYADSVKGRFTISRDNAKNTVYLQMNSLKPEDTAVYYCNKQLLISRQIQYEYWGQGTQVTVSS | low polyreactivity
QVQLVESGGGLVQAGGSLRLSCAASGSTFGGYAMGWYRQAPGKERELVAAINSGGSTYYADSVKGRFTISRDNAKNTVYLQMNSLKPEDTSVYYCNADSQVLRDYISDYWGQGTQVTVSS | low polyreactivity
QVQLVESGGGLVQAGGSLRLSCAASGSTFGGYAMGWYRQAPGKERELVAAITWSGDTYYADSVKGRFTISRDYAKNTVYLQMNSLKPEDTAVYYCAASYLGFHMSYDYWGQGTQVNVSS | high polyreactivity
QVQLVESGGGLVQAGGSLRLSCAASGSTFGGYVMGWYRQAPGKERELVAAISGNGASTTYADSVKGRFTISRDNAKNTFYLQMNSLIPEDTAVFYCAAMYRKAHSDYDYWGQGSQVTVSS | low polyreactivity
QVQLVESGGGLVQAGGSLRLSCAASGSTFGGYVMGWYRQAPGKERELVAAISGNGASTTYADSVKGRFTISRDNAKNTVYLQLNSLKPEDTAVYYCAALYRKAHSDYDYWGQVTQVTVSS | low polyreactivity
QVQLVESGGGLVQAGGSLRLSCAASGSTFGHNVMGWYRQAPGKERELVAVISWRGGSTSYADSVKGRFTISRDNAKNTVYLQMNSLKPEDTAVYYCAKPALRYSSRYDSWGQGTQVTVSS | high polyreactivity
QVQLVESGGGLVQAGGSLRLSCAASGSTFGINAMGWSRQAPGKERELVAAISWRGGSTYYADSVKGRFTISRDNSKNTVYLQMNSLKPEDTAVYYCAADTFYWVGHYYVETYDYWGQGTQVTVSS | high polyreactivity
QVQLVESGGGLVQAGGSLRLSCAASGSTFGINAMGWYRQAPGKERELVAAIDASGGTTYFADSVKGRFTISRDNAKNTVYLQMNSLKPEDTAVYYCAADDNYYTFGYWGQGTQVTVSS | high polyreactivity
QVQLVESGGGLVQAGGSLRLSCAASGSTFGINTMGWYRQAPGKERELVASINRGGTTNYADSVKGRFTISRDNAKNTVYLQMNSLKPEDTAVYYCNARYYVTRLSRFRYGYWGQGTQVTVSS | high polyreactivity
QVQLVESGGGLVQAGGSLRLSCAASGSTFGIYARGGYRQAPGNERELVAAISWRGGRTYYADSVKGRFTISRDNAKNTVYLQMNSLKPEDTAVYYCAADLAVYYIFLALEFNYWGQGTQVTVSS | low polyreactivity
QVQLVESGGGLVQAGGSLRLSCAASGSTFGKYAMGWYRQAPGKERELVAAITWSGASTFYADSVKGRFTISRDNAKNTVYLQMNSLKPEDTAVYYCAARSYKSYYIFDYWGQGTQVTVSS | low polyreactivity
QVQLVESGGGLVQAGGSLRLSCAASGSTFGLNAMGWYRQAPGKERELVAAITRSDITNYADSVKGRFTISRDNAKNTVYLQMNSLKPEDTAVYYCNKTPDRHRRYFGYGYWGHGTQVTVSS | low polyreactivity
QVQLVESGGGLVQAGGSLRLSCAASGSTFGLNAMGWYRQAPGKERELVAAITSGGTYYADSVKGRFTISRDNAKNTVYLQMNSLKPEDTAVYYCAADGTWSIYGGLYYWGQGTQVTVSS | low polyreactivity

Reference: the nanobody polyreactivity screen of Harvey et al. (2022)
